Experiment: soluble on expression in E. coli; label from the status in PepcDB or PDB records

Row | Sequence | soluble on expression in E. coli
1 | CSEPYEGKVAVASVILNRLQNPEFPKSIGDVIKQKYAFSCIRDGKIEVTPNQECYNAVMDALHGKDPTPKAMYFYNPRISTSSWMNNIQKENVKVIGNHVFFKTYKE | not soluble
2 | MKRMLFIFVSSFLLIALAACAQGKETKSELDYDQTKKMIVDILKTDQGKKAIQDVLTDEKMKQALILDETVVKKTIEDAMVSDKGQQFWEKLFKDPEFSSKFAKSMGKEQTQLMKTLLKDPEYQAGVIEIMKNPEVEKMMLQTMKSKEYRQYLQQVLTETAESPLFQAKMIDIISKGVQKAEKGGSGKKEAGGDGGSQGEKKEEQ | not soluble
3 | MAFSAPEPELSVVVPTLNEAETVATLLAALAAQRDVALELLLCDGGSTDGTAALVRGRAGDLPFPVTVTETPPGRGRQMNAGAAAARGATFLFLHADSIIADPLALRRGLDHLAAARRSDKRAAGHFRLRFAGDSPSPLAYRFYERKARLHRPGCTHGDQGLLIPREFFDQVGPFDEGLPILEDVRLAERIAAMGTWVLLPAEIITSARRFETEGLRERQTLNAILMNFAAIGWQQGVEELVAGYRSQDRSGRLRLGPHLARIAGLTAALPRQERLRLWYLTGGYVRGNAWQIPLFLDVRNAWRRGGDDGATPLLSLHDRWFDLLTDNPAGRAAAALMTFLWFRLTLRREMKDWPGILRTPLEHHHHHH | not soluble
4 | MGSDKIHHHHHHVEQTQTRVYQYKFVNSISNIDSLIWNIFFGSSHPFTRHEYLSALEMSRCVSTETGWTPMHLIVMDGDNIIALMPLYLKSHSWGEYVFDWAWAEAYERHNIGYYPKLVGSIPFTPTTGRRIGIDPRLPKHDQQPLIDGIQTYLSQTVIKQGWSSWHCLFTNTEQHLQFAQAGVMERVGCQFHWHNQNYADFNDFLSTLTSRKRKNITKERISARQQLQFRFIDGDKASAQQWQNFVRCYQNTYLKRSGHKGYLSAAFFEQIAATMGSMIRLLLIENSDAQLVASALYFVSDTHLYGRYWGALTECDYVHFEACYYQGIEYAIANQLLVFDAGAQGEHKVARGFRPVKTTSSHFVAHEGFNDAIGAFCQQEQAHIDIYIQQMCEQLPYKSIDNT | not soluble
5 | MGSDKIHHHHHHMIWYLEKWRRRWILGRKPIRESVWQSAVDQLPFLHGLTQDEFRQLREWTSIFLHDKKINGVQGLVVTEAMRVMIAVQACLLILKLDPEYYDDWVEVIVYPGKFILDHAYTDETGIVHTRRMVASGESWQAGPVILSWEDVVHVHHESGYNVVIHEFAHKLDMLNGSANGYPPLHSDMDPRIWAVVFSRAYEIFCRQVERGEVTIMDPYAAEDPAEFFAVSSEVFFTRPYRIKQYFPEMYQQLARYYRQDPAARQECETDS | not soluble
6 | MIREAQRSELPAILELWLESTTWGHPFIKANYWRDCIPLVRDAYLANAQNWVWEEDGKLLGFVSIMEGRFLAAMFVAPKAVRRGIGKALMQYVQQRYPHLMLEVYQKNQPAIDFYRAQGFHIVDCAWQDETQLPTWIMSWPVVQTL | not soluble
7 | GTTKHSKLLILGSGPAGYTAAVYAARANLQPVLITGMEKGGQLTTTTEVENWPGDPNDLTGPLLMERMHEHATKFETEIIFDHINKVDLQNRPFRLNGDNGEYTCDALIIATGASARYLGLPSEEAFKGRGVSACATCDGFFYRNQKVAVIGGGNTAVEEALYLSNIASEVHLIHRRDGFRAEKILIKRLMDKVENGNIILHTNRTLEEVTGDQMGVTGVRLRDTQNSDNIESLDVAGLFVAIGHSPNTAIFEGQLELENGYIKVQSGIHGNATQTSIPGVFAAGDVMDHIYRQAITSAGTGCMAALDAERYLDGLADAK | soluble
8 | MVKIIENKLIDAEPLKDAVLIEGLPGIGHVGRVAAEHIVEEFNGEKVLELYCDDFPPQIVVKNDGTIEYMKNEFYLVKEPVPMVIVLGNTQALSPKGQYVLSEKIVDIAMKYGATKTYTLGGFGIGKISDELKVYVASTSKELSEQHKELGAEFRTDGGSIIGAAGLMLKFSKLKGIEGICLMGETPGYLVDPKSAGNVLEMLSKAIGFEIDMKKLDERAKEMEKFIEKVQMQEQGMQAPQHQDDLSYIG | not soluble
9 | MSLNPKQVSQKLANKPKDRPIAFVSKPDSLTQCLTPVFTNSEGYVSVSDCEEAIDARYDVFSRIAWKLRDGWVCLSAENEKYNQGKRLILRPCVIDDKTQSFTIKDNMLYTPDLRFVVRIANGFLTLQKSQSKGAQSNLILHNMQEWLDTIATPAPLMQKGFIAWKFISPQGFDVYYLRNNESIKNDPQELYFNLENGIIAQYDSASAKMFCLTSKQNAKQDWNWASWEECLQQNLRENKAAPSKLNAQNWKLFMFADNDSAMLKDYLGNFLRVTKYGSNWGVPYTAKADYLAKDTNEGQTSYFQFRHDMQDWERFKNANLSDSLPTCPANGSYAKNLKASVKLPPSFVLTQEWKKRLWQIATTTDGVLERAGDCGVCLLHSYQMIAEMNEYTATPLESGGFFFDTAFGRNPFTSFRARYPMLAASLEQYRASNTPPGLSRSAVFAYAAQMYRAIALSLFPGHFWLSSEFATSDVTIRSALRDLFQQPAGTLWVVQMYYVARDGSFNGHGMPVLRTGDGIQFIPTNLTNMNYEGYERALSNSFAHNLREAYNVVTRNGTLNLYMLYSLRLREIYPNPINAFVSNNNCSGEGEDRRGTRNMPLSRFINQCASGRCVLQEGHHHHHH | not soluble
10 | MNSTFIVNFVGKATPATIKQLAAVTHENGGKWLISKVNFIEDSVAAVIKIELPADNASTVKQAFQTYPSLLVEITDADPHVHKSDAVYKVRLDANDRAGIVNEITHLLDGQGISILDMDCQRVFIAGGGGISSSLFTANVAMRLPVNIEIDDVINELEALSEDTRVTLEA | not soluble
11 | MDAYEIIQYIGDAKKQTLVKVTLKGQLKEVTFPETIKVFNNCKTGTLFGDWADVKPFLEANKEKIEDYVVENDARNSAIPFLDLKDINARIEPGALIREKVEIGDQAVIMMGAILNIGAVVGAGTMIDMGAVLGGRATVGKHCHIGAGTVLAGVIEPPSAAPVVIENEVVIGANAVVLEGVRVGEGAVVAAGAVVVEDVPAHTVVAGVPAKVIKQIDDKTKSKTEILEELRKL | soluble
12 | MGSDKIHHHHHHMKVDWDHLQFFLVLARTKTLTNAARIIGVEHSTVARRIQALELALGTTLFKREATGYELTLEGMALVPRVEQMEQAFLQIEKPHQPLQGRVRIGTPEGFGTAFLARLLAEFSIQYPLLTIDLIPVPKMIKLSHREADIVVSIERPTSGPYIITRLSDYCLKIYGSQNYLAQNPPIRRLEDLTQHRFVNYIDDLVYSPELYCLERLPLKLNANFRSSSILAQQIAVSAGAGLAILPKFLADDKPELEEVLEQQVRFTHTFWMLTFVDLQHEPRIKLVWDYLRKQADKYQHLLVD | not soluble
13 | MSSATASIKLSNGVEMPVIGLGTWQSSPAEVITAVKTAVKAGYRLIDTASVYQNEEAIGTAIKELLEEGVVKREELFITTKAWTHELAPGKLEGGLRESLKKLQLEYVDLYLAHMPAAFNDDMSEHIASPVEDVWRQFDAVYKAGLAKAVGVSNWNNDQISRALALGLTPVHNSQVELHLYFPQHDHVDFCKKHNISVTSYATLGSPGRVNFTLPTGQKLDWAPAPSDLQDQNVLALAEKTHKTPAQVLLRYALDRGCAILPKSIQENRIKENFEVFDFSLTEEDIAKLEESKNSQRLFLQDFMTGHPEDAFAAERK | soluble
14 | MAAAALRSGWCRCPRRCLGSGIQFLSSHNLPHGSTYQMRRPGGELPLSKSYSSGNRKGFLSGLLDNVKQELAKNKEMKESIKKFRDEARRLEESDVLQEARRKYKTIESETVRTSEVLRKKLGELTGTVKESLHEVSKSDLGRKIKEGVEEAAKTAKQSAESVSKGGEKLGRTAAFRALSQGVESVKKEIDDSVLGQTGPYRRPQRLRKRTEFAGDKFKEEKVFEPNEEALGVVLHKDSKWYQQWKDFKENNVVFNRFFEMKMKYDESDNAFIRASRALTDKVTDLLGGLFSKTEMSEVLTEILRVDPAFDKDRFLKQCENDIIPNVLEAMISGELDILKDWCYEATYSQLAHPIQQAKALGLQFHSRILDIDNVDLAMGKMVEQGPVLIITFQAQLVMVVRNPKGEVVEGDPDKVLRMLYVWALCRDQDELNPYAAWRLLDISASSTEQIL | soluble
15 | GSSGSSGGEIIEGCRLPVLRRNQDNEDEWPLAEILSVKDISGRKLFYVHYIDFNRRLDEWVTHERLDLKKIQFPKKEAKTPSGPSSG | soluble
16 | MKGVVEGQCGQQNALVGLANTFGTSNQRVAPSNAAASLLPSSSMGEQMANEFLRQQARTMAPTSFSMKSMQNNLPQASASSSLAANWTKEFQPRQNQLASQWSQQYTSSAPSMESAWRQVQAPSMTSTSSHQPITDAGMWSSEYLDTVDTSLTKSSGTQNWADDFMEQQDNYGMENTWKDAQAFEQRWEEIKRDMEKDESLQSPENYVYQEANPFTTMSDPLMEGDNLMRNGDIGNAMLAYEAAVQKDPQDARAWCKLGLAHAENEKDQLAMQAFQKCLQIDAGNKEALLGLSVSQANEGMENEALHQLDKWMSSYLGSNSTQVTTTPPLYSSFLDSDTFNRVEARFLDAARQQGATPDPDLQNALGVLYNLNRNFARAVDSLKLAISKNPTDARLWNRLGATLANGDHTAEAISAYREALKLYPTYVRARYNLGISCMQLSSYDEALKHFLSALELQKGGNDASGIWTTMRSAAIRTSNVPDNLLRAVERRDLAAVKASLV | not soluble
17 | MDSYGYVETLGLVTAIEAADAALKAANVTLMNCYYVKGGIVTIEVAGDVSAVTAAVDAATESAKRLGNFLSSNVIARIDSETKKILISDLGNKEKKQKIENKSVVKDTTIEKKATEKISTEEITEEIINESKNENFDEEQNKEINEKVTEIAEVYEKVENPAEKLDQNNDIQEKIEVFEIEVEKEDDEAEKLKKQYQGMKVIDLKKMVNSCKLGYTWNQIKTMPKKKLIEILIKNNKEEAQWQH | not soluble
18 | LMKLYSLSVFYKGEPKAVLLKAAYDVSSFSFFQRSSVQEFMTFTSQLIVERSAKGSRASVKEQEYLCHVYVRSDSLAGVVIADSEYPSRVAFTLLEKVLDEFSKQVDRIDWPVGSPATIHYTALDGHLSRYQNPREADPMSKVQAELDETKIILHNTMESLLERGEKLDDLVSKSEVLGTQSKAFYKTARKQNSCCAIM | soluble
19 | YLELNEIESIIKDINTKAQKMHSGIHKRFYLFVALMTEFQALNGMRIGEMLAIQNEDIDFDNKSLNINGTIHWFHDESGGFGVKDTTKTESSYRTIGLSSRSCEILKKAILENKKDSKWNDGYLNRNFVFTNHKGNPMQTERFNKILREAAKDVGIDKEVSSHILRHSHISLLSQQGVSLKAIMDRVGHSDHRTTLSIYSHVTEQMDKDMMNKLEQVKLG | soluble
20 | MGSDKIHHHHHHMLIHICCSVDNLYFLKKAKEAFAGEKIVGFFYNPNIHPYSEYLLRLEDVKRTCEMLGIELLEGDYELEKFLDKAKGKELLGEKSERCFECFDLRLEASALKAFELGEEKFTTTLLTSPKKDPNQLIAKGQHIAQRHNLEFVVFRNDNFEHFKSELDLNLQALARENELYRQNYCGCQFALKIQKESQNRSPFELYSPLKRQILPASIEERTQVFRELDAAKKDANKPFLAQKTIATYRLLNGGVWLSKNSNPLDCCILARSKSKAKVRINDLRWVFSQRLSALVGYSQRDETLFLTLEGLNTLMAKNYDNLKELNLNPLSYEEELSLRALVSGSESINPIIVLEERTEKTLFVEIKSIFQEEKVFYLL | not soluble
21 | MKQKIWYTYDDIHRVIKALAEKIRNADIKYDAMIAIGGGGFIPARMLRCFLEIPIYAVTTAYYDSDNEGQVTEEVKKVQWLDPVPEALRGKNVLVVDEVDDSRVTMEFCLKELLKEDFGTIGVAVLHEKIKAKAGKIPEGIPYFSGITVEDWWINYPWDALDIDEHNRLAEAGRG | not soluble
